Changes are numbered by the printed parent chain.
T1: MerR (Tn501) (Pseudomonas aeruginosa (Tn501), UniProt P0A183 1-144)
T1 sequence: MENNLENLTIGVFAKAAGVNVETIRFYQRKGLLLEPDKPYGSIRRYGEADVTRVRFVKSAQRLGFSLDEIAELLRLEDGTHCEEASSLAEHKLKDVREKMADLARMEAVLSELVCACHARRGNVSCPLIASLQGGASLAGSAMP

B1: Pmer-M7 (dsDNA)
DNA 1: TTGACTCCGTACATGAGACGGAAGTAAGGT
DNA 2: ACCTTACTTCCGTCTCATGTACGGAGTCAA
B2: Pmer-M14 (dsDNA)
DNA 1: TTGACTCCGTACATGAGTACGGTAAGGT
DNA 2: ACCTTACCGTACTCATGTACGGAGTCAA
B3: Pmer-M10 (dsDNA)
DNA 1: TTGACTCCGTACATGAGTACGGAGTAAGGT
DNA 2: ACCTTACTCCGTACTCATGTACGGAGTCAA
B4: Pmer-M12 (dsDNA)
DNA 1: TTGACTCCGTACATGAGTACGGGTAAGGT
DNA 2: ACCTTACCCGTACTCATGTACGGAGTCAA
B5: Pmer-M4 (dsDNA)
DNA 1: TTGACTCCGTACTGAGTACGGAAGTAAGGT
DNA 2: ACCTTACTTCCGTACTCAGTACGGAGTCAA
B6: Pmer-M11 (dsDNA)
DNA 1: B3 DNA 1 with G24A
DNA 2: B3 DNA 2 with C7T
B7: Pmer-M1 (dsDNA)
DNA 1: TTGACTCGTACATGAGTACGGAAGTAAGGT
DNA 2: ACCTTACTTCCGTACTCATGTACGAGTCAA

target: T1, MerR (Tn501); assay: EMSA; 0-600 nM MerR, 30 nM DNA, no Hg stated; 10 mM Tris-HCl pH 8.0, 50 mM KCl, 5 mM MgCl2, 10% glycerol, 25 C 10 min; 8% native PAGE, 80 V 45 min; settings: protein: recombinant; chain copies: 2; blunt

Binder | binding result
B1 | no binding
B2 | binds
B3 | binds
B4 | binds
B5 | no binding
B6 | binds
B7 | binds
